Experimental data as given in US20220356256A1 (published 2022).

Key:
Assay in all cases: SPR
5054 Fz4 B5 = target: 5054 Fz4 B5
5075 Fz4 D2 = target: 5075 Fz4 D2
5057 Fz4 B8 = target: 5057 Fz4 B8
5039 Fz4 A2 = target: 5039 Fz4 A2
5048 Fz4 A11 = target: 5048 Fz4 A11
5056 Fz4 B7 = target: 5056 Fz4 B7
5045 Fz4 A8 = target: 5045 Fz4 A8
5073 Fz4 C12 = target: 5073 Fz4 C12
5074 Fz4 D1 = target: 5074 Fz4 D1
5067 Fz4 C6 = target: 5067 Fz4 C6

Kd (5054 Fz4 B5): 2.16 nM
Kd (5075 Fz4 D2): 1.19 nM
Kd (5057 Fz4 B8): 2.56 nM
Kd (5039 Fz4 A2): 2.57 nM
Kd (5048 Fz4 A11): 3.71 nM
Kd (5056 Fz4 B7): 1.14 nM
Kd (5045 Fz4 A8): 1.3 nM
Kd (5073 Fz4 C12): 0.422 nM
Kd (5074 Fz4 D1): 3.61 nM
Kd (5067 Fz4 C6): 1.63 nM
B1: FZD4 (Fc fusion)
chain: FGDEEERRCDPIRISMCQNLGYNVTKMPNLVGHELQTDAELQLTTFTPLIQYGCSSQLQFFLCSVYVPMCTEKINIPIGPCGGMCLSVKRRCEPVLKEFGFAWPESLNCSKFPPQNDHNHMCMEGPGDEEVPLPHKTPIQPGEE
